In publication PMC6411926, “Engagement of DNA and H3K27me3 by the CBX8 chromodomain drives chromatin association” (Nucleic Acids Research, 2018) one finds Kd data, which are given here for 3 molecules.

Data set [1] deals with histone H3K27me3 peptide (Homo sapiens) (UniProt P68431). Conditions: cited from earlier work.
Data set [2] concerns the target T1, CBX8 chromodomain (residues 8-61) (UniProt Q9HC52 8-61).
T1 construct: CBX8 chromodomain, residues 8-61; Uniformly 15N-labelled for the NMR titrations; The methods name two chromodomain constructs (Addgene 62514 and GST-CBX8 8-61 in pGSTag); the purification that is described is that of the GST fusion cleaved with TEV; also called CD; CBX8 CD; source: E. coli BL21 (DE3), purified (glutathione agarose, TEV cleavage, cation exchange, Superdex 75)
T1 sequence (looked up): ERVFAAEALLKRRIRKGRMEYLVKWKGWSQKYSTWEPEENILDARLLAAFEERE
The data set is described as follows: NMR titration; 1H-15N HSQC; histone peptide added to 15N-CD pre-bound to an 11 bp DNA (CD:DNA 1:1). Conditions: both partners purified.

Data set [3] deals with T1, CBX8 chromodomain (residues 8-61). Briefly: NMR titration; 1H-15N HSQC of 0.05-0.10 mM 15N-CBX8 CD with increasing molar ratios of unlabelled histone peptide; 25 °C; 100 mM NaCl, 40 mM phosphate pH 6.8; CSPs fit to a single-site model with ligand depletion, global Kd as the average over perturbed resonances. Conditions: both partners purified.
The target of another data set is T2, CBX8 chromodomain (CD) (UniProt Q9HC52 8-61).
T2 sequence: T1 sequence (looked up)
The data set is described as follows: NMR titration (1H-15N HSQC); authors' estimate (likely); saturation at ~1:1, curved CSPs; EMSA: 25 mM phosphate pH 6.8, 25 mM NaCl, 1 mM EDTA, 1 mM DTT, 15 min on ice, 6% gel in 0.4x TBE; NMR: 40 mM phosphate pH 6.8, 100 mM NaCl, 25 C. Conditions: protein: recombinant; tags: GST removed by TEV; 15N-labelled for NMR; blunt.

Ends that are not written are not given here. trimethyl = trimethyl-lysine

As for CBX8 chromodomain (from UniProt Q9HC52), the Kd (commonly the free concentration of one partner at which half of the binding sites on the other are occupied at equilibrium, for simple one-to-one binding) in data set [1] was over 500 µM.
For the molecule KAARK(trimethyl)SAPATGG [H3K27me3 (23-34) histone peptide], the results for the Kd in data set [2] and in data set [3] were 200 µM and 700 µM, respectively.

B1: 11 bp DNA (dsDNA)
DNA 1: GCGTTTAAGCG
DNA 2: CGCTTAAACGC
For B1, in the data set with CBX8 chromodomain (CD), the Kd was under 10 µM.
